The values below are quoted from earlier work in US20250332099A1, “PROCESS FOR FORMULATING COMPOSITIONS COMPRISING GLUCAGON-LIKE-PEPTIDE-2 (GLP-2) ANALOGUES” (ZEALAND PHARMA A/S, priority 2021, published 2025).

“Hy-His-Ala-Asp-Gly-Ser-Phe-Ser-Asp-Glu-Met-Asn-Thr-Ile-Leu-Asp-Asn-Leu-Ala-Ala-Arg-Asp-Phe-Ile-Asn-Trp-Leu-Ile-Gln-Thr-Lys-Ile-Thr-Asp-OH [GLP-2 [1-33]]”: the half-life in humans result is listed as “around 7 minutes”. For `CC[C@H](C)[C@H](NC(=O)[C@H](Cc1ccccc1)NC(=O)[C@H](CC(=O)O)NC(=O)[C@H](CCCNC(=N)N)NC(=O)[C@H](C)NC(=O)[C@H](C)NC(=O)[C@H](CC(C)C)NC(=O)[C@H](CC(N)=O)NC(=O)[C@H](CC(=O)O)NC(=O)[C@H](CC(C)C)NC(=O)[C@@H](NC(=O)[C@@H](NC(=O)[C@H](CC(N)=O)NC(=O)[C@H](CCSC)NC(=O)[C@H](CCC(=O)O)NC(=O)[C@H](CC(=O)O)NC(=O)[C@H](CO)NC(=O)[C@H](Cc1ccccc1)NC(=O)[C@H](CO)NC(=O)CNC(=O)[C@H](CC(=O)O)NC(=O)CNC(=O)[C@@H](N)Cc1c[nH]cn1)[C@@H](C)O)[C@@H](C)CC)C(=O)N[C@@H](CC(N)=O)C(=O)N[C@@H](Cc1c[nH]c2ccccc12)C(=O)N[C@@H](CC(C)C)C(=O)N[C@H](C(=O)N[C@@H](CCC(N)=O)C(=O)N[C@H](C(=O)N[C@@H](CCCCN)C(=O)N[C@H](C(=O)N[C@H](C(=O)N[C@@H](CC(=O)O)C(=O)O)[C@@H](C)O)[C@@H](C)CC)[C@@H](C)O)[C@@H](C)CC` [teduglutide], for the setting “compared with seven minutes for native GLP-2”, the half-life entry is reported as “about two”. Consider “GLP-2 [3-33]: truncated GLP-2 [3-33] (DGSFSDEMNTILDNLAARDFINWLIQTKITD; Glucagon-like peptide 2; UniProt P01275 148-178, looked up, fragment)”, for which the half-life in humans was 27 min.
